Test results published in article PMC6625726, “A polymorphic helix of a Salmonella needle protein relays signals defining distinct steps in type III secretion” (PLoS Biology, 2019).

B1: PrgI, wild type, in S. Typhimurium (natural protein)
chain: MATPWSGYLDDVSAKFDTGVDNLQTQVTEALDKLAAKPSDPALLAAYQSKLSEYNLYRNAQSNTVKVFKDIDAAIIQNFR
notes: needle filament protein PrgI of the SPI-1 T3SS, 80 amino acids; assembled in vivo into the needle filament of the injectisome; also called WT PrgI; needle filament; source: S. Typhimurium ΔprgI ΔprgJ, from the low-copy plasmid pWSK29 (with prgJ); or chromosomal in wild-type and ΔsipD strains
B2: PrgI^S49A, recombinant (natural protein, Salmonella enterica serovar Typhimurium, UniProt P41784 1-80, looked up)
chain: MATPWSGYLDDVSAKFDTGVDNLQTQVTEALDKLAAKPSDPALLAAYQAKLSEYNLYRNAQSNTVKVFKDIDAAIIQNFR
notes: needle filament protein PrgI of the SPI-1 T3SS, 80 amino acids; not shown: His6, N-terminal, cleaved
B3: PrgI^V67A, recombinant (natural protein, Salmonella enterica serovar Typhimurium, UniProt P41784 1-80, looked up)
chain: MATPWSGYLDDVSAKFDTGVDNLQTQVTEALDKLAAKPSDPALLAAYQSKLSEYNLYRNAQSNTVKAFKDIDAAIIQNFR
notes: as for B2
B4: PrgI^R58A, recombinant (natural protein, Salmonella enterica serovar Typhimurium, UniProt P41784 1-80, looked up)
chain: MATPWSGYLDDVSAKFDTGVDNLQTQVTEALDKLAAKPSDPALLAAYQSKLSEYNLYANAQSNTVKVFKDIDAAIIQNFR
notes: needle filament protein PrgI of the SPI-1 T3SS, 80 amino acids; used for solid-state NMR; not shown: His6, N-terminal, cleaved
B5: PrgI^Q77R, recombinant (natural protein, Salmonella enterica serovar Typhimurium, UniProt P41784 1-80, looked up)
chain: MATPWSGYLDDVSAKFDTGVDNLQTQVTEALDKLAAKPSDPALLAAYQSKLSEYNLYRNAQSNTVKVFKDIDAAIIRNFR
notes: as for B4
B6: PrgI^V20A, recombinant (natural protein, Salmonella enterica serovar Typhimurium, UniProt P41784 1-80, looked up)
chain: MATPWSGYLDDVSAKFDTGADNLQTQVTEALDKLAAKPSDPALLAAYQSKLSEYNLYRNAQSNTVKVFKDIDAAIIQNFR
notes: as for B4
B7: PrgI, wild type, recombinant (natural protein)
chain: MATPWSGYLDDVSAKFDTGVDNLQTQVTEALDKLAAKPSDPALLAAYQSKLSEYNLYRNAQSNTVKVFKDIDAAIIQNFR
notes: needle filament protein PrgI of the SPI-1 T3SS, 80 amino acids; pET15b, thrombin-cleavable tag; polymerised in vitro into filaments; also called PrgI^WT; WT PrgI; not shown: His6, N-terminal, cleaved
B8: PrgI^F16A, recombinant (natural protein, Salmonella enterica serovar Typhimurium, UniProt P41784 1-80, looked up)
chain: MATPWSGYLDDVSAKADTGVDNLQTQVTEALDKLAAKPSDPALLAAYQSKLSEYNLYRNAQSNTVKVFKDIDAAIIQNFR
notes: as for B2
B9: PrgI^D70K, recombinant (natural protein, Salmonella enterica serovar Typhimurium, UniProt P41784 1-80, looked up)
chain: MATPWSGYLDDVSAKFDTGVDNLQTQVTEALDKLAAKPSDPALLAAYQSKLSEYNLYRNAQSNTVKVFKKIDAAIIQNFR
notes: as for B2
B10: PrgI^L56A, recombinant (natural protein, Salmonella enterica serovar Typhimurium, UniProt P41784 1-80, looked up)
chain: MATPWSGYLDDVSAKFDTGVDNLQTQVTEALDKLAAKPSDPALLAAYQSKLSEYNAYRNAQSNTVKVFKDIDAAIIQNFR
notes: as for B2
B11: PrgI^K66E, recombinant (natural protein, Salmonella enterica serovar Typhimurium, UniProt P41784 1-80, looked up)
chain: MATPWSGYLDDVSAKFDTGVDNLQTQVTEALDKLAAKPSDPALLAAYQSKLSEYNLYRNAQSNTVEVFKDIDAAIIQNFR
notes: as for B2
B12: PrgI^L9A, recombinant (natural protein, Salmonella enterica serovar Typhimurium, UniProt P41784 1-80, looked up)
chain: MATPWSGYADDVSAKFDTGVDNLQTQVTEALDKLAAKPSDPALLAAYQSKLSEYNLYRNAQSNTVKVFKDIDAAIIQNFR
notes: as for B2
B13: PrgI^L31A, recombinant (natural protein, Salmonella enterica serovar Typhimurium, UniProt P41784 1-80, looked up)
chain: MATPWSGYLDDVSAKFDTGVDNLQTQVTEAADKLAAKPSDPALLAAYQSKLSEYNLYRNAQSNTVKVFKDIDAAIIQNFR
notes: as for B2
B14: PrgI^T3A, recombinant (natural protein, Salmonella enterica serovar Typhimurium, UniProt P41784 1-80, looked up)
chain: MAAPWSGYLDDVSAKFDTGVDNLQTQVTEALDKLAAKPSDPALLAAYQSKLSEYNLYRNAQSNTVKVFKDIDAAIIQNFR
notes: as for B2

Target: the molecule itself
Assay: cryo-EM structure; needle filaments boxed out from fully assembled needle complexes isolated by affinity chromatography (in vivo assembled, attached to the base); helical reconstruction
B1: binds.

Target: the molecule itself
Assay: cryo-EM structure; filaments polymerized in vitro from purified protein, sonicated; helical reconstruction
B2: binds. B3: binds.

Target: the molecule itself
Assay: solid-state NMR of filaments; magic-angle spinning, 800 MHz, 11 kHz, approximately 278 K; 13C-detected 1D and 2D spectra of needle filaments
B4: binds. B5: binds. B6: binds.

Target: the molecule itself
Assay: in vitro polymerization seen by negative-stain electron microscopy; His-tag cleaved with thrombin; concentrated to approximately 1 mg/ml in 20 mM MES, pH 5.5, overnight at room temperature; 2% phosphotungstic acid stain
B7: binds. B8: binds. B9: binds. B10: binds. B11: binds. B12: binds. B13: binds. B14: binds.
